We go through one molecule from patent publication CN116178530A (SHANGHAI JUNSHI BIOSCIENCES CO LTD; JUNMENG BIOSCIENCES CO …, dated 2023).

Test [1] deals with Gamma突变株RBD蛋白(货号SPD-C82E7，ACRO Biosystems) (SARS-CoV-2, UniProt P0DTC2 319-537).
In test [2] the target is Delta突变株RBD蛋白(货号SPD-C82Ed，ACRO Biosystems) (SARS-CoV-2, UniProt P0DTC2 319-537).
For test [3], the target named is Epsilon突变株RBD蛋白(货号SPD-C82E3，ACRO Biosystems) (SARS-CoV-2, UniProt P0DTC2 319-537).
In test [4] the target is Alpha突变株RBD蛋白(货号SPD-C82E6，ACRO Biosystems) (SARS-CoV-2, UniProt P0DTC2 319-537).
Test [5] deals with Beta突变株RBD蛋白(货号SPD-C82E5，ACRO Biosystems) (SARS-CoV-2, UniProt P0DTC2 319-537).
Test [6] deals with Kappa突变株RBD蛋白(货号SPD-C82Ec，ACRO Biosystems) (SARS-CoV-2, UniProt P0DTC2 319-537).
Test [7] deals with SARS-CoV-2的Alpha突变株(B.1.1.7)假病毒的刺突蛋白 (SARS-CoV-2, UniProt P0DTC2 14-1273). The test can be described thus: cell-based or functional assay.
For test [8], the target named is SARS-CoV-2的Kappa突变株(B.1.617.1)假病毒的刺突蛋白 (SARS-CoV-2, UniProt P0DTC2 14-1273). As to the kind of experiment: cell-based or functional assay.
For test [9], the target named is SARS-CoV-2的Gamma突变株(P.1)假病毒的刺突蛋白 (SARS-CoV-2, UniProt P0DTC2 14-1273). As to the kind of experiment: cell-based or functional assay.
The target in test [10] is SARS-CoV-2的Beta突变株(B.1.351)假病毒的刺突蛋白 (SARS-CoV-2, UniProt P0DTC2 14-1273). As to the kind of experiment: cell-based or functional assay.
For test [11], the target named is SARS-CoV-2的Delta突变株(B.1.617.2)假病毒的刺突蛋白 (SARS-CoV-2, UniProt P0DTC2 14-1273). As to the kind of experiment: cell-based or functional assay.

B1: JS5-10 (antibody, human IgG1, kappa, L234A L235A, V domains shown)
VH: EVQLLESGGGLVQPGGSLRLSCAASGFTFSSYAMSWVRQAPGKGLEWVSAIVGSGGSTYYADSVKGRFIISRDNSKNTLYLQMNSLRAEDTAVYYCAKSLIYGHYDILTGAYYFDYWGQGTLVTVSS
VL: DIQMTQSPSSVSASVGDRVTIPCRASQGIGNWLAWYQQKPGKAPKLLIYAASSLQSGVPSRFSGSGSGTDFTLTISSLQPEDFATYYCQQANSFPPFGQGTRLEIKR
As usually defined, the Kd is the constant that tells how readily two partners part at equilibrium. Broadly, the koff is the rate constant with which the complex falls apart. Low readings indicate a long-lived complex, high ones a short-lived complex. What is called kon is the rate constant with which the complex forms. Low values mean slower complex formation, high ones faster complex formation. Regarding B1, the Kd in test [1] is 1.12 nM; in test [2] it was 0.73 nM; in [3], 1.17 nM; in [4], 1.3 nM; in [5], 0.88 nM; in test [6], 0.875 nM. The koff in [1] is 0.000241 s⁻¹; in [2], 0.000161 s⁻¹; in [3], 0.000226 s⁻¹; in test [4], 0.000316 s⁻¹; in [5], 0.000176 s⁻¹; in test [6], 0.000172 s⁻¹. The kon in [1] was 216000 M⁻¹ s⁻¹; in [2], 220000 M⁻¹ s⁻¹; in test [3] it was 193000 M⁻¹ s⁻¹; in test [4], 243000 M⁻¹ s⁻¹; in test [5], 201000 M⁻¹ s⁻¹; in test [6], 196000 M⁻¹ s⁻¹. The “假病毒中和 IC50 (荧光素酶报告基因, 293-ACE2细胞)” value worked out at 1.18 ng/mL in test [7]; 5.4 ng/mL in [8]; 0.449 ng/mL in [9]; 8.47 ng/mL in test [10]; 5.56 ng/mL in test [11].
